Reference: article PMC9896067, “Peptide Supramolecular Assembly‐Instructed In Situ Self‐Aggregation for Stratified Targeting Sonodynamic Therapy Enhancement of AIE Luminogens” (Advanced Science, 2022)
Where a SMILES comes first, the peptide text is derived from it. The star is where a group is joined. X1 = O=C(c1cc(OCCCCCC(=O)*)cc(C(=O)c2ccc3ccc4cccc5ccc2c3c45)c1)c1ccc2ccc3cccc4ccc1c2c34

Key:
4T1 tumor‐bearing mice = test: In vivo and ex vivo fluorescence imaging / biodistribution; details: DIR‐labelled, i.v. 2.4 µmol kg^−1, n = 3; for ex vivo distribution in tumor and major organs: 48 h postinjection
Experimental: For the fluorescence imaging and biodistribution assessment in vivo, DIR‐labelled nanosystem was prepared. Briefly, 2 µL of DIR stock solution (2 mM) was added to 1 mL of the PAHN. After stirring for 12 h, the DIR‐labelled nanosystem was finally obtained after dialyzing against deionized water using a dialysis bag (MWCO: 3500 Da) overnight to remove excess DIR. 4T1 tumor‐bearing mice (n = 3) were intravenously injected with DIR‐labelled (Ex/Em = 748 nm/780 nm) PAHN‐1 or PAHN‐2 at a dose of 2.4 µmol kg^−1. Fluorescence images were acquired at preinjection, and 0, 0.5, 1, 2, 6, 24 and 48 h postinjection by using a fluorescence imaging system (CRi Inc., USA). The tumor tissues and major organs were isolated and obtained for ex vivo imaging on the day of animal sacrifice. The corresponding fluorescence intensities were recorded.

4T1 cells = test: CCK‐8 viability of 4T1 cells with or without US; type: cell-based, murine; details: for survival of 4T1 cells: without US irradiation, various concentrations
Experimental: To determine the antitumor efficacy in vitro, the 4T1 cells were divided into the following 6 groups: i) control, ii) control + US, iii) BP + US, iv) PAHN‐3 + US, v) PAHN‐2 + US, and vi) PAHN‐1 + US. Then, the medium were replaced with the fresh medium containing corresponding formulations at different concentrations (30, 60, 120 µM). After 4 h of treatment, the cells were rinsed with PBS and then treated by US at an intensity of 3 W cm^−2 for 4 min. After that, the culture medium was replaced by a fresh serum‐free medium for another 4 h incubation. Finally, a standard CCK‐8 assay was used to evaluate the viability of the cells. The therapeutic effect was also detected by cellular apoptosis assay. In brief, the 4T1 cells were divided into the 6 groups as described above. Next, cells were treated with either BP, PAHN‐3, PAHN‐2, PAHN‐1 at a concentration of 120 µM, or PBS, followed by US irradiation. Finally, these cells were costained by a dye solution of calcein AM (2 µM) and PI (2 µM) or collected for apoptosis analysis using flow cytometry.

HUVECs = test: CCK‐8 cytotoxicity against HUVECs; type: cell-based, human; details: without US
inoblast L929 = test: CCK‐8 cytotoxicity against L929; type: cell-based; details: without US
healthy mice = test: Biosafety of PAHN in vivo (H&E, routine blood, blood biochemistry); details: i.v. 2.4 µmol kg^−1, 1, 3, 7, 14, 28 d postinjection, n = 5
Text: To investigate the short and long‐term biosafety of PAHN‐1 in vivo, PAHN‐1 at a dose of 2.4 µmol kg^−1 was intravenously injected into twenty five healthy mice that were sacrificed at predetermined time points (1, 3, 7, 14, and 28 d postinjection). Five healthy mice that were administrated with the saline solution served as the control group. The blood samples were then collected for biochemistry and routine blood examination. The main organs were stained with H&E.

SMILES	ex vivo distribution in tumor and major organs (4T1 tumor‐bearing mice)	time of maximum fluorescence signal of the tumor region (4T1 tumor‐bearing mice) [h]	cell viability (4T1 cells; 4T1 cells, + US 3 W cm^−2, 4 min after 4 h treatment, 30, 60, 120 µM tested, CCK‐8, n = 3)	viability of cells (4T1 cells; 4T1 cells, without US, concentration of BP up to 120 µM, CCK‐8)	cytotoxicity against HUVECs (HUVECs)	cytotoxicity against L929 (inoblast L929)	hematological indices (routine blood, blood biochemistry) (healthy mice; compared to control)	histopathology of major organs (H&E) (healthy mice)	survival of 4T1 cells (4T1 cells; CCK‐8)
CC(C)C[C@H](NC(=O)[C@H](CCCCN)NC(=O)[C@H](C)NC(=O)[C@H](CC(C)C)NC(=O)[C@H](CCCCN)NC(=O)[C@H](CC(C)C)NC(=O)[C@@H](NC(=O)[C@H](Cc1ccccc1)NC(=O)[C@H](Cc1ccccc1)NC(=O)[C@H](Cc1ccccc1)NC(=O)[C@H](CS)NC(=O)CCCCCOc1cc(C(=O)c2ccc3ccc4cccc5ccc2c3c45)cc(C(=O)c2ccc3ccc4cccc5ccc2c3c45)c1)C(C)C)C(=O)N[C@@H](C)C(=O)N[C@@H](CCCCN)C(=O)N[C@@H](CC(=O)O)C(=O)N[C@@H](CCC(=O)O)C(=O)N[C@H](C(=O)N[C@@H](CC(=O)O)C(=O)N[C@@H](C)C(=O)N[C@@H](CCCCN)C(=O)N[C@@H](CCCNC(=N)N)C(=O)NCC(=O)N[C@@H](C)C(=O)N[C@@H](CCCNC(=N)N)C(=O)N[C@@H](CO)C(=O)N[C@H](C(=O)N[C@@H](C)C(=O)O)[C@@H](C)O)C(C)C [PAHN-1] (X1-CFFFVLKLAKLAKDEVDAKRGARSTA-OH)	relatively greater tumor accumulation	24	less than 20%	higher than 80%	negligible cytotoxicity	negligible cytotoxicity	negligible variations	neither significant histopathological changes nor abnormal inflammatory responses	
CC(C)C[C@H](NC(=O)[C@H](CCCCN)NC(=O)[C@H](C)NC(=O)[C@H](CC(C)C)NC(=O)[C@H](CCCCN)NC(=O)[C@H](CC(C)C)NC(=O)[C@@H](NC(=O)[C@H](Cc1ccccc1)NC(=O)[C@H](Cc1ccccc1)NC(=O)[C@H](Cc1ccccc1)NC(=O)[C@H](CS)NC(=O)CCCCCOc1cc(C(=O)c2ccc3ccc4cccc5ccc2c3c45)cc(C(=O)c2ccc3ccc4cccc5ccc2c3c45)c1)C(C)C)C(=O)N[C@@H](C)C(=O)N[C@@H](CCCCN)C(=O)N[C@@H](CC(=O)O)C(=O)N[C@@H](CCC(=O)O)C(=O)N[C@H](C(=O)N[C@@H](CC(=O)O)C(=O)N[C@@H](C)C(=O)N[C@@H](CCCCN)C(=O)N[C@@H](CC(=O)O)C(=O)NCC(=O)N[C@@H](C)C(=O)N[C@@H](CCC(=O)O)C(=O)N[C@@H](CO)C(=O)N[C@@H](Cc1c[nH]cn1)C(=O)N[C@@H](Cc1c[nH]cn1)C(=O)O)C(C)C [PAHN-2] (X1-CFFFVLKLAKLAKDEVDAKDGAESHH-OH)	tended to accumulate in the liver and spleen								no evident change
CC(C)C[C@H](NC(=O)[C@@H](NC(=O)[C@H](Cc1ccccc1)NC(=O)[C@H](Cc1ccccc1)NC(=O)[C@H](Cc1ccccc1)NC(=O)[C@H](CS)NC(=O)CCCCCOc1cc(C(=O)c2ccc3ccc4cccc5ccc2c3c45)cc(C(=O)c2ccc3ccc4cccc5ccc2c3c45)c1)C(C)C)C(=O)N[C@@H](CCCCN)C(=O)N[C@@H](CCCCN)C(=O)N[C@@H](CCCCN)C(=O)N[C@@H](CC(=O)O)C(=O)N[C@@H](CCC(=O)O)C(=O)N[C@H](C(=O)N[C@@H](CC(=O)O)C(=O)N[C@@H](C)C(=O)N[C@@H](CCCCN)C(=O)N[C@@H](CCCNC(=N)N)C(=O)NCC(=O)N[C@@H](C)C(=O)N[C@@H](CCCNC(=N)N)C(=O)N[C@@H](CO)C(=O)N[C@H](C(=O)N[C@@H](C)C(=O)O)[C@@H](C)O)C(C)C [PAHN-3] (X1-CFFFVLKKKDEVDAKRGARSTA-OH)									no evident change
